Experimental data: patent US10000542 (Novo Nordisk, dated 2018)
Numbered stars: 1 amine (or outer) side, 2 acyl side, 3 side chain; on linkers, the order of the positions; unused ones are H or OH. Square brackets hold non-standard residues; d marks the D form. Side chains are listed from the residue outwards. Ends that are not written are not given here. * marks the point of attachment. Dodecanoyl(12-OPh(4-COOH)) = O=C(O)c1ccc(OCCCCCCCCCCCC(=O)*)cc1; Undecanoyl(11-OPh(4-COOH)) = O=C(O)c1ccc(OCCCCCCCCCCC(=O)*)cc1; γGlu = O=C(O)[C@H](CCC(=O)[*:2])N[*:1]; εLys = N[C@@H](CCCCN[*:1])C(=O)[*:2]; AEEA = NCCOCCOCC(=O)O; Aib = CC(C)(N)C(=O)O

What was measured:
human GLP-1 receptor [1] = target: T1, human GLP-1 receptor (human, UniProt P43220 24-463); assay: cell-based or functional assay
human GLP-1 receptor [2] = target: T1, human GLP-1 receptor; assay: SPA displacement of [125I]-GLP-1(7-36)NH2 from BHK membranes with human GLP-1 receptor, high HSA (2.0%)
human GLP-1 receptor [3] = target: T1, human GLP-1 receptor; assay: SPA displacement of [125I]-GLP-1(7-36)NH2 from BHK membranes with human GLP-1 receptor, low HSA (0.001%)
Procedure: (§1) 50 ul (micro liter) HSA ("high albumin" experiment containing 2% HSA), or buffer ("low albumin" experiment containing 0.001% HSA) was added to Optiplate, and 25 ul of test compounds were added. 5-10 ug membrane protein/sample was added (50 ul) corresponding to 0.1-0.2 mg protein/ml (to be preferably optimised for each membrane preparation). SPA-particles (Wheatgerm agglutinin SPA beads, Perkin Elmer, #RPNQ0001) were added in an amount of 0.5 mg/well (50 ul). […] The plates were sealed with PlateSealer and incubated for 120 minutes at 30° C. while shaking. The plates were centrifuged (1500 rpm, 10 min) and counted in Topcounter.

human GLP-1 receptor [4] = target: T1, human GLP-1 receptor; assay: cell-based or functional assay; remark: listed apart in the source
human GLP-1 receptor [5] = target: T1, human GLP-1 receptor; assay: SPA displacement of [125I]-GLP-1(7-36)NH2 from BHK membranes with human GLP-1 receptor, high HSA (2.0%); remark: listed apart in the source
Procedure: as §1

[6] = target: human serum albumin (HSA) (human, UniProt P02768 25-609); assay: cell-based or functional assay
human GLP-1 receptor [7] = target: T1, human GLP-1 receptor; assay: cell-based or functional assay; remark: listed apart in the source

Sequence of human serum albumin (HSA) (P02768 25-609 limits assumed): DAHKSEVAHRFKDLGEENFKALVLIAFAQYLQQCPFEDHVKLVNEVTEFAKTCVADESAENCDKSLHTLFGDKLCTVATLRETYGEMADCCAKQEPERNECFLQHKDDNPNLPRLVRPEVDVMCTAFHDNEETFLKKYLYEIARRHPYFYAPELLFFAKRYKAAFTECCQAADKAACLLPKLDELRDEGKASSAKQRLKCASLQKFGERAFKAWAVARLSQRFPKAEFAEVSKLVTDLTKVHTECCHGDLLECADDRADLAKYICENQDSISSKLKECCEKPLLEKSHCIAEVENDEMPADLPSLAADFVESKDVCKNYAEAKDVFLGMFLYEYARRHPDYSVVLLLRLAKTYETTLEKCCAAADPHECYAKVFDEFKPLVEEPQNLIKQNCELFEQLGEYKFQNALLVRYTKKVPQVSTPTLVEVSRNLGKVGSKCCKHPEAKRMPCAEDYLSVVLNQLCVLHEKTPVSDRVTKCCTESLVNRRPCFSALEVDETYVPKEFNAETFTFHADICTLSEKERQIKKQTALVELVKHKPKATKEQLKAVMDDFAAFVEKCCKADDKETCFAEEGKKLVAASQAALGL

B1: N^ε26-[(2S)-6-[[(2S)-6-[[(4S)-4-carboxy-4-[11-(4-carboxyphenoxy)undecanoylamino]butanoyl]amino]-2-(dimethylamino)hexanoyl]amino]-2-(dimethylamino)hexanoyl], … (peptide)
peptide: XXEGTFTSDVSSYLEGQAAKEFIAWLVRGRK
modifications: not fully specified; Imp (imidazopropionyl, des-amino histidine) at 7; Aib at 8; Lys 26 and Lys 37 each acylated at the epsilon-amino group with the side chain given in the name (numbering of GLP-1(7-37))
- EC50/pM (0% HSA), In vitro potency (CRE luciferase) (human GLP-1 receptor [1]): 7.9 pM

B2: Comparative compound (WO2011/080103) Example 4 (peptide)
peptide: HXEGTFTSDVSSYLEGQAAKEFIAWLVRGRK
modifications: Aib at 8; 26K and 37K acylated: protracting moiety C14 diacid, linker gGlu-2xOEG (numbering of GLP-1(7-37), His = 7)
notes: X stands for Aib
- IC50 (human GLP-1 receptor [2]): 357 nM
- IC50 (human GLP-1 receptor [3]): 6.02 nM
- In vitro potency (Example 44) EC50/pM (human GLP-1 receptor [4]): 366 pM
- In vitro potency (Example 45) (0% HSA) EC50/pM (human GLP-1 receptor [4]): 46 pM
- In vitro potency (Example 45) (1% HSA) EC50/pM (human GLP-1 receptor [4]): 92 pM

B3: N^ε26-[(2S)-2-amino-6-[[(2S)-2-[[2-[[(2S)-2-[[(4S)-4-carboxy-4-[12-(4-carboxyphenoxy)dodecanoylamino]butanoyl]amino]-3-hydroxypropanoyl]amino]acetyl]amino]-3-hy … (peptide)
peptide: XXEGTFTSDVSSYLEGQAAKEFIAWLVRGRK
modifications: Imp (imidazopropionyl, des-amino histidine) at 7; Aib at 8; Lys 26 and Lys 37 each acylated at the epsilon-amino group with the side chain given in the name (numbering of GLP-1(7-37))
- EC50/pM (0% HSA), In vitro potency (CRE luciferase) (human GLP-1 receptor [1]): 9.4 pM

Binder: H[Aib]EGTFTSDVSSYLEEQAAK([εLys-γGlu-γGlu-Undecanoyl(11-OPh(4-COOH))])EFIEWLVRGRK([εLys-γGlu-γGlu-Undecanoyl(11-OPh(4-COOH))])E (X stands for Aib)
- IC50 (human GLP-1 receptor [5]): 123 nM
- IC50 (human GLP-1 receptor [3]): 0.02 nM

Binder: H[Aib]EGTFTSDVSSYLEEQAAK([εLys-AEEA-AEEA-γGlu-Undecanoyl(11-OPh(4-COOH))])EFIAWLVRGRK([εLys-AEEA-AEEA-γGlu-Undecanoyl(11-OPh(4-COOH))])
- IC50 (human GLP-1 receptor [5]): 251 nM
- IC50 (human GLP-1 receptor [3]): 0.26 nM
- EC50/pM (0% HSA), In vitro potency (CRE luciferase) (human GLP-1 receptor [1]): 5.5 pM
- EC50/pM (1% HSA), In vitro potency (CRE luciferase) (human GLP-1 receptor [1]): 70 pM

B4: N^ε26-[(2S)-2-amino-6-[[(2S)-2-amino-6-[[(4S)-4-carboxy-4-[11-(4-carboxyphenoxy)undecanoylamino]butanoyl]amino]hexanoyl]amino]hexanoyl], … (peptide)
peptide: HXEGTFTSDVSSYLEGQAAKEFIAHLVQGRK
modifications: Aib at 8; Lys 26 and Lys 37 each acylated at the epsilon-amino group with the side chain given in the name (numbering of GLP-1(7-37), His = 7)
- EC50/pM (0% HSA), In vitro potency (CRE luciferase) (human GLP-1 receptor [1]): 7.2 pM

B5: N^ε26-[(2S)-2-amino-6-[[(2S)-2-amino-6-[[(4S)-4-carboxy-4-(13-carboxytridecanoylamino)butanoyl]amino]hexanoyl]amino]hexanoyl], … (peptide)
peptide: HXEGTFTSDVSSYLEGQAAKEFIAWLVHGRK
modifications: Aib at 8; Lys 26 and Lys 37 each acylated at the epsilon-amino group with the side chain given in the name (numbering of GLP-1(7-37), His = 7)
- IC50 (human GLP-1 receptor [5]): 71 nM
- IC50 (human GLP-1 receptor [3]): 0.93 nM
- EC50/pM (0% HSA), In vitro potency (CRE luciferase) (human GLP-1 receptor [1]): 7.8 pM
- EC50/pM (1% HSA), In vitro potency (CRE luciferase) (human GLP-1 receptor [1]): 80 pM
- EC50 (ratio 1% HSA/0% HSA), CRE luciferase [6]: 10.3 ratio
- EC50/pM, In vitro potency (AlphaScreen) (human GLP-1 receptor [7]): 48 pM

Binder: H[Aib]EGTFTSDVSSYLEEQAAK([εLys-γGlu-γGlu-Undecanoyl(11-OPh(4-COOH))])EFIEWLVRGRK([εLys-γGlu-γGlu-Undecanoyl(11-OPh(4-COOH))])
- IC50 (human GLP-1 receptor [5]): 641 nM
- IC50 (human GLP-1 receptor [3]): 0.03 nM
- EC50/pM (0% HSA), In vitro potency (CRE luciferase) (human GLP-1 receptor [1]): 1.5 pM
- EC50/pM (1% HSA), In vitro potency (CRE luciferase) (human GLP-1 receptor [1]): 391 pM
- EC50 (ratio 1% HSA/0% HSA), CRE luciferase [6]: 260 ratio

Binder: H[Aib]EGTFTSDVSSYLEEQAAK([εLys-AEEA-AEEA-γGlu-Dodecanoyl(12-OPh(4-COOH))])EFIAWLVRGRK([εLys-AEEA-AEEA-γGlu-Dodecanoyl(12-OPh(4-COOH))])
- IC50 (human GLP-1 receptor [5]): 484 nM
- EC50/pM (0% HSA), In vitro potency (CRE luciferase) (human GLP-1 receptor [1]): 3.6 pM
- EC50/pM (1% HSA), In vitro potency (CRE luciferase) (human GLP-1 receptor [1]): 141 pM
- EC50/pM, In vitro potency (AlphaScreen) (human GLP-1 receptor [7]): 369 pM

B6: N^ε26-[(2S)-2-amino-6-[[(2S)-2-amino-6-[[(4S)-4-carboxy-4-[12-(4-carboxyphenoxy)dodecanoylamino]butanoyl]amino]hexanoyl]amino]hexanoyl], … (peptide)
peptide: HXEGTFTSDVSSYLEGQAAKEFIAWLVQGRK
modifications: Aib at 8; Lys 26 and Lys 37 each acylated at the epsilon-amino group with the side chain given in the name (numbering of GLP-1(7-37), His = 7)
- IC50 (human GLP-1 receptor [5]): 321 nM
- IC50 (human GLP-1 receptor [3]): 0.64 nM
- EC50/pM (0% HSA), In vitro potency (CRE luciferase) (human GLP-1 receptor [1]): 8.7 pM
- EC50/pM (1% HSA), In vitro potency (CRE luciferase) (human GLP-1 receptor [1]): 633 pM
- EC50 (ratio 1% HSA/0% HSA), CRE luciferase [6]: 72 ratio
- EC50/pM, In vitro potency (AlphaScreen) (human GLP-1 receptor [7]): 116 pM

B7: N^ε26-[(2S)-2-amino-6-[[(2S)-2-amino-6-[[(4S)-4-carboxy-4-[10-(4-carboxyphenoxy)decanoylamino]butanoyl]amino]hexanoyl]amino]hexanoyl], … (peptide)
peptide: HXEGTFTSDVSSYLEGQAAKEFIAHLVQGRK
modifications: Aib at 8; Lys 26 and Lys 37 each acylated at the epsilon-amino group with the side chain given in the name (numbering of GLP-1(7-37), His = 7)
- IC50 (human GLP-1 receptor [2]): 27 nM
- IC50 (human GLP-1 receptor [3]): 1.57 nM
- EC50/pM (0% HSA), In vitro potency (CRE luciferase) (human GLP-1 receptor [1]): 11 pM
- In vitro potency (Example 45) (0% HSA) EC50/pM (human GLP-1 receptor [4]): 11 pM
- In vitro potency (Example 45) (1% HSA) EC50/pM (human GLP-1 receptor [4]): 162 pM
